Laboratory results as given in PMC10743992, “A Transient π–π or Cation–π Interaction between Degron and Degrader Dual Residues: A Key Step for the Substrate Recognition and Discrimination in the Processive Degradation of SulA by ClpYQ (HslUV) Protease in Escherichia coli” (International Journal of Molecular Sciences, 2023).
Where a chain is given by its changes, count along the chain named. Numbers in names are those of the source.

T1: His (6x)-tagged ClpY (Escherichia coli, UniProt P0A6H5 1-443)
T1 construct: ClpY (HslU) ATPase/unfoldase of Escherichia coli, wild type, cloned in pET21a at NdeI-HindIII; Used as the 6-oligomer (1.3 uM) with 5 mM ATP; also called His-ClpY; HslU
T1 sequence (looked up): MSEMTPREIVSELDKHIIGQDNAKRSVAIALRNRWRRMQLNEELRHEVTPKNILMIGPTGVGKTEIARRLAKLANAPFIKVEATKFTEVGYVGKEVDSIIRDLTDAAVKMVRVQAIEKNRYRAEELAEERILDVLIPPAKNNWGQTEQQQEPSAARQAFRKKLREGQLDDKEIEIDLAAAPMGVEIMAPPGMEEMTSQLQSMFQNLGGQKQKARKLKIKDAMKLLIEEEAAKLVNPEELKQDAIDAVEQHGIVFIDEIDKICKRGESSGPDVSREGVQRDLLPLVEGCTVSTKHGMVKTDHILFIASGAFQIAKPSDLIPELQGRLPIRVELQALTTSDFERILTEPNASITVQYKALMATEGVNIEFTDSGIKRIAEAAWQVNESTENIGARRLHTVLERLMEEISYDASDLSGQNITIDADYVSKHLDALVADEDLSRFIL

B1: MBP-SulA (natural protein, Escherichia coli, UniProt P0AFZ5 1-169, looked up)
chain: MYTSGYAHRSSSFSSAASKIARVSTENTTAGLISEVVYREDQPMMTQLLLLPLLQQLGQQSRWQLWLTPQQKLSREWVQASGLPLTKVMQISQLSPCHTVESMVRALRTGNYSVVIGWLADDLTEEEHAELVDAANEGNAMGFIMRPVSASSHATRQLSGLKIHSNLYH
notes: also called wild-type MBP-SulA; source: E. coli BL21 (DE3), purified (amylose resin)
B2: MBP-SulA^F143K (natural protein, Escherichia coli, UniProt P0AFZ5 1-169, looked up)
chain: B1 chain with F143K
notes: SulA of Escherichia coli with F143K, cloned in pMal-c2X at EcoRI-BamHI; source: E. coli BL21 (DE3), purified (amylose resin)
B3: MBP-SulA^F143H (natural protein, Escherichia coli, UniProt P0AFZ5 1-169, looked up)
chain: B1 chain with F143H
notes: SulA of Escherichia coli with F143H, cloned in pMal-c2X at EcoRI-BamHI; source: E. coli BL21 (DE3), purified (amylose resin)

The binders below were run against T1, His (6x)-tagged ClpY (assay: pull-down; His-ClpY (6-oligomer, 1.3 uM) held on cobalt resin; MBP-SulA or variant 7.8 uM; 50 mM HEPES pH 7.4, 150 mM NaCl, 5% glycerol, 5 mM MgCl2, 0.04% Triton X-100, 5 mM ATP, 41 °C 3 h, then resin at 4 °C; 10 washes with 300 mM NaCl; SDS-PAGE, Coomassie). Settings: both partners purified.

Binding result, binds:
B1
B2
B3
